Data on eight molecules can be found in patent publication US20240417450A1 (UNIVERSITY OF TOKYO, published 2024).

Test [1] has as its target T1, E. coli wild-type SHMT, GST fusion protein (E. coli, UniProt P0A825 1-417).
T1 construct: Overexpressed in E. coli as a GST fusion protein, purified and immobilised on the ELISA plate at 2 ug/ml; not shown: Glutathione-S-transferase (GST) fusion partner
T1 sequence: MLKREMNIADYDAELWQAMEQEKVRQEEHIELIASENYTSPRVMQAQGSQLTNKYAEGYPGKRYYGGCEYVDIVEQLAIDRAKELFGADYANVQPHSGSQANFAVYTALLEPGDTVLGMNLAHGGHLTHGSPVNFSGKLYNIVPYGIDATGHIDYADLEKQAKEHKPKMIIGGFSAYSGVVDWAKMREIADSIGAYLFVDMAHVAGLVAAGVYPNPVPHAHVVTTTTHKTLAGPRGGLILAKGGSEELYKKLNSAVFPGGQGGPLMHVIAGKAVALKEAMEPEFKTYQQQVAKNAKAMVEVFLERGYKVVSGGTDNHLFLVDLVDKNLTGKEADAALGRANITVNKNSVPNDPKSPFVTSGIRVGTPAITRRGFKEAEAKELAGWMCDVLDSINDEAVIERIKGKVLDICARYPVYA
Put plainly: ELISA, GST fusion protein immobilised at 2 ug/ml, antibody dilution series.

Another test deals with T2, E. coli iPGM (E. coli, UniProt P37689 1-514, limits assumed).
T2 sequence (looked up): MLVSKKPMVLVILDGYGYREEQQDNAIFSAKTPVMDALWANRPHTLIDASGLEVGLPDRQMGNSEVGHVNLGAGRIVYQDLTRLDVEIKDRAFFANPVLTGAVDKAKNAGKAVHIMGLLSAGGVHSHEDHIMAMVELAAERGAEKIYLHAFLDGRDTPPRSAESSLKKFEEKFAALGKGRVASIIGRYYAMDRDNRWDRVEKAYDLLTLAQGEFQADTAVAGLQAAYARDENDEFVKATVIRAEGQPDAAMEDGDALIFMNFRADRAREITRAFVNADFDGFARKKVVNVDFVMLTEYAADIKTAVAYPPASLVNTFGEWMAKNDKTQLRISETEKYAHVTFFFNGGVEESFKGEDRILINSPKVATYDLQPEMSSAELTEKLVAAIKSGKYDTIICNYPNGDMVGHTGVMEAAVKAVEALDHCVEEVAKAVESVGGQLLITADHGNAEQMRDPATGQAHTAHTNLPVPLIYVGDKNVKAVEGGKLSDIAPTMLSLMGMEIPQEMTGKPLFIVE
Put plainly: Western blot. On the technique in general: Immunoblotting shows a protein as a band on a membrane.

Test [2] addresses T3, C. difficile iPGM (486-509) (C. difficile).
T3 construct: Final purified peptide used for crystallisation
T3 peptide: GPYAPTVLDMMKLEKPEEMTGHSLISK
Put plainly: X-ray crystal structure of the Fab-peptide complex.

The target of the next test is T4, E. coli SHMT (25-45) (E. coli).
T4 construct: Final purified peptide used for crystallisation
T4 peptide: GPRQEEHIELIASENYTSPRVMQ
Put plainly: X-ray crystal structure of the Fab-peptide complex.

B1: RS_H007_L001 (antibody, V domains shown)
VH: EVQLQQSGSELVKSGASVKLSCTVSGFNFTNYYIHWVRQRTEQGLEWIGRIDPENNQTTYAPKFQGKATMTADTSSNTAYLQLTSLTSEDTAVYYCARSTVLDYWGHGTTLTVSS
VL: DVLMTQSPASLSVSLGDRATISCRASQSIVHTNGNTYLEWYLQKPGQSPKLLIYKVSNRFSGVPDRFSGSGSGTDFILKISRVEAEDLGVYYCFQGSHVPPTFGGGTKLEVK
Turning to B1, the binding result in test [1] is on record as “binds”.

B2: W27G2 antibody (mouse hybridoma-producing IgA) (antibody, V domains shown)
VH: EVQLQQSGSELVKSGASVKLSCTVSGFNFTDYYIHWVRQRTEQGLEWIGRIDPENDETTYAPKFQGKATMTADTSSNTAYLQLTSLTSEDTAVYYCARSTVLDYWGHGTTLTVSS
VL: DVLMTQTPLSLPVSLGDQASISCRASQSIVHTNGNTYLEWYLQKPGQSPKLLIYKVSNRFSGVPDRFSGSGSGTDFILKISRVEAEDLGVYYCFQGSHVPPTFGGGTKLEVKR
notes: Hybridoma-producing IgA from intestinal mucosa lamina propria B cells; also called W27 antibody; W27G2-CHT
Consider B2, for which the results for the binding result (in test [1]; with E. coli iPGM) were “binds” and “no binding”, respectively.

B3: RS_H000_L000GR Fab (Fab, V domains shown)
VH: EVQLQQSGSELVKSGASVKLSCTVSGFNFTDYYIHWVRQRTEQGLEWIGRIDPENDETTYAPKFQGKATMTADTSSNTAYLQLTSLTSEDTAVYYCARSTVLDYWGHGTTLTVSS
VL: DVLMTQTPLSLPVSLGDQASISCRASQSIVHTNGNTYLEWYLQKPGQSPKLLIYKVSNRFSGVPDRFSGSGSGTDFILKISRVEAEDLGVYYCFQGSHVPPTFGGGTKLEVK
notes: Fab made by papain digestion of the W27 recombinant IgG expressed in CHO cells; also called IgG W27 Fab
Regarding B3, the binding result (in test [2]; with E. coli SHMT (25-45)) was “binds” in each case.

B4: RS_H007_L002 (antibody, V domains shown)
VH: EVQLQQSGSELVKSGASVKLSCTVSGFNFTNYYIHWVRQRTEQGLEWIGRIDPENNQTTYAPKFQGKATMTADTSSNTAYLQLTSLTSEDTAVYYCARSTVLDYWGHGTTLTVSS
VL: DVLMTQSPASLSVSLGDRVTISCRASQSIVHTNGNTYLEWYLQKPGQSPKLLIYKVSNRFSGVPDRFSGSGSGTDFILKISRVEAEDLGVYYCFQGSHVPPTFGGGTKLEVK
For the molecule B4, the binding result in test [1] is reported as “binds”.

B5: RS_H007_L005 (antibody, V domains shown)
VH: EVQLQQSGSELVKSGASVKLSCTVSGFNFTNYYIHWVRQRTEQGLEWIGRIDPENNQTTYAPKFQGKATMTADTSSNTAYLQLTSLTSEDTAVYYCARSTVLDYWGHGTTLTVSS
VL: DVLMTQSPASLSVSLGDRATISCRSSQSIVHTNGNTYLEWYLQKPGQSPKLLIYKVSNRFSGVPDRFSGSGSGTDFILKISRVEAEDLGVYYCFQGSHVPPTFGGGTKLEVK
As for B5, the binding result in test [1] is “binds”.

B6: RS_H000_L001 (antibody, V domains shown)
VH: EVQLQQSGSELVKSGASVKLSCTVSGFNFTDYYIHWVRQRTEQGLEWIGRIDPENDETTYAPKFQGKATMTADTSSNTAYLQLTSLTSEDTAVYYCARSTVLDYWGHGTTLTVSS
VL: DVLMTQSPASLSVSLGDRATISCRASQSIVHTNGNTYLEWYLQKPGQSPKLLIYKVSNRFSGVPDRFSGSGSGTDFILKISRVEAEDLGVYYCFQGSHVPPTFGGGTKLEVK
notes: recombinant multimeric IgA made with H, L and J chain vectors (mainly dimers by SDS-PAGE); also called rW27
On to B6, for which the binding result in test [1] is listed as “binds”.

B7: RS_H000_L005 (antibody, V domains shown)
VH: EVQLQQSGSELVKSGASVKLSCTVSGFNFTDYYIHWVRQRTEQGLEWIGRIDPENDETTYAPKFQGKATMTADTSSNTAYLQLTSLTSEDTAVYYCARSTVLDYWGHGTTLTVSS
VL: DVLMTQSPASLSVSLGDRATISCRSSQSIVHTNGNTYLEWYLQKPGQSPKLLIYKVSNRFSGVPDRFSGSGSGTDFILKISRVEAEDLGVYYCFQGSHVPPTFGGGTKLEVK
For the molecule B7, in test [1], the binding result is listed as “binds”.

B8: RS_H007_L004 (antibody, V domains shown)
VH: EVQLQQSGSELVKSGASVKLSCTVSGFNFTNYYIHWVRQRTEQGLEWIGRIDPENNQTTYAPKFQGKATMTADTSSNTAYLQLTSLTSEDTAVYYCARSTVLDYWGHGTTLTVSS
VL: DVLMTQSPASMSVSLGDRATISCRSSQSIVHTNGNTYLEWYLQKPGQSPKLLIYKVSNRFSGVPDRFSGSGSGTDFILKISRVEAEDLGVYYCFQGSHVPPTFGGGTKLEVK
As to B8, the binding result in test [1] is reported as “binds”.
